From US20240010735A1 (EISAI R AND D MANAGEMENT, published 2024)

How the values were obtained:
Assay in all cases: ELISA: Fc-His proteins (1 nM) captured on anti-6-His antibody, antibody B 10 µg/mL with human IgG 100 µg/mL, HRP anti-human kappa light chain antibody, OD450 as % of mouse EphA4-Fc-His
[1] = target: T1, mouse EphB1 extracellular region-Fc-His protein (mouse; human, UniProt Q8CBF3 18-540)
T1 construct: extracellular domain; not shown: Fc region of human IgG1; histidine tag
T1 sequence (looked up): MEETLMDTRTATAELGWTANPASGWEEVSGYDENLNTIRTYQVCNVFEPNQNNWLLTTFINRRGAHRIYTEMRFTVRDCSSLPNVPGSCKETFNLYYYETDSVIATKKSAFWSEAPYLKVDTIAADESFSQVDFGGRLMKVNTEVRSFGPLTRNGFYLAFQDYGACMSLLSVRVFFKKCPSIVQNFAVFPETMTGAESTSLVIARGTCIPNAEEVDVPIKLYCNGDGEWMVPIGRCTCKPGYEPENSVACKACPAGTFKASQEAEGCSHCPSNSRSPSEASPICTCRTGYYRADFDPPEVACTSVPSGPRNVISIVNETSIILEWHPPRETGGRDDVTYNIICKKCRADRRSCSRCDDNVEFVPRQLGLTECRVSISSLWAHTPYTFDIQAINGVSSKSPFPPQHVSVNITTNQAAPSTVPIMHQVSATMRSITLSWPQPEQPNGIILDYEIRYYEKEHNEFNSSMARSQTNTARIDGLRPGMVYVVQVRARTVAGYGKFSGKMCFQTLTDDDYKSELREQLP
Method: (§1) Rabbit anti-6-His antibodies (Bethyl Laboratories) were coated onto the wells of a 96-well plate (Nunc). After incubating at 4° C. overnight, the wells were blocked at room temperature for 1 hour by 1% Block Ace (DS Pharma Biomedical). After washing 3 times with 0.05% Tween 20/PBS (Thermo […]), each Eph receptor of mouse extracellular region-Fc-His protein (final concentration 1 nM) was seeded into each well, and incubated at room temperature for 1 hour. After washing 3 times, human IgG solution (100 μg/mL, Sigma) and antibody B (10 μg/mL) were supplemented to the wells, and incubated at room temperature for 1 hour. Horseradish peroxidase-labeled goat anti-human Kappa Light Chain antibody (IBL) was added, and incubated at room temperature for 1 hour. After washing 3 times, TMBZ (3,3′,5,5′-tetramethylbenzidine, Sigma) solution was added to the wells, and upon confirmation of modest coloring, an equal amount of quenching solution (1 N H₂SO₄, Wako Pure Chemicals) was added to the wells, and absorbance at 450 nm was read by a microplate reader (PerkinElmer).

[2] = target: T2, mouse EphA3 extracellular region-Fc-His protein (mouse; human, UniProt P29319 21-540)
T2 construct: extracellular domain; not shown: Fc region of human IgG1; histidine tag
T2 sequence (looked up): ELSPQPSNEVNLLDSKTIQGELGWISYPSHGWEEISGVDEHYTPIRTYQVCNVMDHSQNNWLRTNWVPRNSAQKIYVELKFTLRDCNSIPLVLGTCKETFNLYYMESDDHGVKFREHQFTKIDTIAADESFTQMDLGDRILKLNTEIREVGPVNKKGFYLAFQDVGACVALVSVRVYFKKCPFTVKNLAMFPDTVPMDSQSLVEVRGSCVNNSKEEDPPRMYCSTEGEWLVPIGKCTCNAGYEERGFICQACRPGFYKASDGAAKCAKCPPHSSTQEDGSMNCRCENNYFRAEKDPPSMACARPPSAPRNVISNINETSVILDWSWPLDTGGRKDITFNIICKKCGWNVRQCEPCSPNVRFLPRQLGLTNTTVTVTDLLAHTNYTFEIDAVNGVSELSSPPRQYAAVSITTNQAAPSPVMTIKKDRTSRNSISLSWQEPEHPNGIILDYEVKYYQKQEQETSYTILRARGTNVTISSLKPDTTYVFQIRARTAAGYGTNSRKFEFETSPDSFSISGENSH
Method: as §1

[3] = target: T3, mouse EphA10 extracellular region-Fc-His protein (mouse; human, UniProt Q8BYG9 23-565)
T3 construct: extracellular domain; not shown: Fc region of human IgG1; histidine tag
T3 sequence (looked up): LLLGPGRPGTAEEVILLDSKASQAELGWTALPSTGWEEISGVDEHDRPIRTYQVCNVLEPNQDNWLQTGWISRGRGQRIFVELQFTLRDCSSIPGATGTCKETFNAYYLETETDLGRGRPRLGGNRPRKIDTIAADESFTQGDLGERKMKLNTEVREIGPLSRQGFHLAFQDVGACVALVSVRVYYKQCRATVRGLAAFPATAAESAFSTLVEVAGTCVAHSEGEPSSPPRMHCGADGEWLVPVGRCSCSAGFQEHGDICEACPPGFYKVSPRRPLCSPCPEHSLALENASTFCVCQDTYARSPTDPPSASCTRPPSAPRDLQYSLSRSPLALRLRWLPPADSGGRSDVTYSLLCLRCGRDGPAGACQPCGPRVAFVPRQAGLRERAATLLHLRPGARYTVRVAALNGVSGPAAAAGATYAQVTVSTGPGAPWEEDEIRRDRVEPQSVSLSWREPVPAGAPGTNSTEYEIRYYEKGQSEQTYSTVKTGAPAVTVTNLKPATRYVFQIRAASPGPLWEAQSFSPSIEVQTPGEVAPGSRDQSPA
Method: as §1

Measured: binding result

B1: humanized anti-EphA4 monoclonal antibody (antibody B) (antibody, human IgG2, V domains shown)
VH: QVQLVESGGGVVQPGRSLRLSCAVSGFSLTRFGVHWVRQAPGKGLEWVAVIWRGGSTDYNAAFMSRLTISKDNSKNTVYLQMNSLRAEDTAVYYCAKESLFGVYYDYGYYSMDYWGQGTTVTVSS
VL: DIQMTQSPSSLSASVGDRVTITCRASQEISGYLSWLQQKPGKAPKRLIYAASTLDSGVPSRFSGSRSGTEYTLTISSLQPEDFATYYCLQYASYPLTFGGGTKVEIKR
notes: expressed in Expi293F cells; also called humanized antibody of antibody A; HK2-42 / L1-8
no binding (tested: 10 µg/mL): [1] | [2] | [3]
